This data set relates to Ac-Ala-Ala-Pro-Thr(Man)-Pro-Val-Ala-Ala-Pro-NH2.

The values below come from US20040132130.

Sequence of His-Xpress-sOMGnT(L) (chain, as listed by the source): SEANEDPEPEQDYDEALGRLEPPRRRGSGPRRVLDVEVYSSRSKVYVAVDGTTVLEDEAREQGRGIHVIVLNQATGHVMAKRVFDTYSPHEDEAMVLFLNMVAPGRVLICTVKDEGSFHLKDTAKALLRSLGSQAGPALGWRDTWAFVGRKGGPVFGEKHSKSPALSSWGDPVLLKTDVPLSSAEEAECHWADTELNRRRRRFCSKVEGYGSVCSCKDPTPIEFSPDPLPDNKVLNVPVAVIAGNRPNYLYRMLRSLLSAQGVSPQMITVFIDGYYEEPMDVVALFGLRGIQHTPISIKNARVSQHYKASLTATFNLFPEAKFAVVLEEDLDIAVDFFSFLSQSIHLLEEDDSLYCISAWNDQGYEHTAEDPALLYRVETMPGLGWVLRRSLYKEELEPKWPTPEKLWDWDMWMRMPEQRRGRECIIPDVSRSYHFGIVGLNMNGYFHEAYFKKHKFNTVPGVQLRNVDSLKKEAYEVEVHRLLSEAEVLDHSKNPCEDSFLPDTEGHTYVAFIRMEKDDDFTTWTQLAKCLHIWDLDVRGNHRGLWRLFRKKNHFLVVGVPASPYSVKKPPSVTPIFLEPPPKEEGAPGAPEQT

Consider His-Xpress-sOMGnT(L), for which the Km value was found to be 1850 µM, the OMGnT activity (pmol/hr/mg protein) (pmol/hr/mg protein) was 15 and the OMGnT relative activity (%) was 100%.
